Assay results: patent US20230193513A1 (TWIST BIOSCIENCE, published 2023)
Numbering of substitutions follows the chain as printed.

B1: GLP1R-238 (antibody, human IgG2, lambda, V domains shown)
VH: QVQLVQSGAEVKKPGSSVKVSCKASGGSFSSHAISWVRQAPGQGLEWMGGIIPIFGAPNYAQKFQGRVTITADESTSTAYMELSSLRSEDTAVYYCARANQHFSQAGRAARVPGPSSSLGPRGYHYYGMDVWGQGTLVTVSS
VL: QSVLTQPPSVSAAPGQKVTISCSGSTSNIANNYVSWYQQLPGTAPKLLIYANNRRPSGIPDRFSGSKSGTSATLGITGLQTGDEADYYCGAWDVRLDVGVFGGGTKLTVLG
B2: GLP1R-239 (antibody, human IgG2, lambda)
heavy: QVQLVESGGGVVQPGRSLRLSCAASGFDFSNYGMHWVRQAPGKGLEWVADISYEGSNKYYADSVKGRFTISRDNSKNTLYLQMNSLRAEDTAVYYCAKHMSMQSQGLDNLAARDFINWLIQTKITDGFELSRADLVGDAFDVWGQGTLVTVSSASASTKGPSVFPLAPCSRSTSESTAALGCLVKDYFPEPVTVSWNSGALTSGVHTFPAVLQSSGLYSLSSVVTVPSSNFGTQTYTCNVDHKPSNTKVDKTVERKCCVECPPCPAPPVAGPSVFLFPPKPKDTLMISRTPEVTCVVVDVSHEDPEVQFNWYVDGVEVHNAKTKPREEQFNSTFRVVSVLTVVHQDWLNGKEYKCKVSNKGLPAPIEKTISKTKGQPREPQVYTLPPSREEMTKNQVSLTCLVKGFYPSDIAVEWESNGQPENNYKTTPPMLDSDGSFFLYSKLTVDKSRWQQGNVFSCSVMHEALHNHYTQKSLSLSPG
light: QSVLTQPPSVSAAPGQKVTISCSGSTSNIEKNYVSWYQQLPGTAPKLLIYGNDQRPSGIPDRFSGSKSGTSATLGITGLQTGDEADYYCGTWENRLSAVVFGGGTKLTVLGQPKAAPSVTLFPPSSEELQANKATLVCLISDFYPGAVTVAWKADSSPVKAGVETTTPSKQSNNKYAASSYLSLTPEQWKSHRSYSCQVTHEGSTVEKTVAPTECS
B3: GLP1R-241 (antibody, human IgG2, lambda)
heavy: QVQLVQSGAEVKKPGSSVKVSCKASGGTFSDYAISWVRQAPGQGLEWMGGIIPIFGTTNYAQKFQGRVTITADESTSTAYMELSSLRSEDTAVYYCAKHMSMQGSVAGGTFTSDVSSYLEGQAAKEFIAWLVKGGPSFIRADLVGDAFDVWGQGTLVTVSSASASTKGPSVFPLAPCSRSTSESTAALGCLVKDYFPEPVTVSWNSGALTSGVHTFPAVLQSSGLYSLSSVVTVPSSNFGTQTYTCNVDHKPSNTKVDKTVERKCCVECPPCPAPPVAGPSVFLFPPKPKDTLMISRTPEVTCVVVDVSHEDPEVQFNWYVDGVEVHNAKTKPREEQFNSTFRVVSVLTVVHQDWLNGKEYKCKVSNKGLPAPIEKTISKTKGQPREPQVYTLPPSREEMTKNQVSLTCLVKGFYPSDIAVEWESNGQPENNYKTTPPMLDSDGSFFLYSKLTVDKSRWQQGNVFSCSVMHEALHNHYTQKSLSLSPG
light: B2 light with S25I, T26S, E30G, K31N, G51D, N52D, E93D, R95I, V99A
B4: GLP1R-242 (antibody, human IgG2, lambda)
heavy: QVQLVQSGAEVKKPGSSVKVSCKASGGTFSSYEISWVRQAPGQGLEWMGGIIPILGIANYAQKFQGRVTITADESTSTAYMELSSLRSEDTAVYYCAKHMSMQADTGTFTSDVSSYLEGQAAKEFIAWLVKGEFSSRADLVGDAFDVWGQGTLVTVSSASASTKGPSVFPLAPCSRSTSESTAALGCLVKDYFPEPVTVSWNSGALTSGVHTFPAVLQSSGLYSLSSVVTVPSSNFGTQTYTCNVDHKPSNTKVDKTVERKCCVECPPCPAPPVAGPSVFLFPPKPKDTLMISRTPEVTCVVVDVSHEDPEVQFNWYVDGVEVHNAKTKPREEQFNSTFRVVSVLTVVHQDWLNGKEYKCKVSNKGLPAPIEKTISKTKGQPREPQVYTLPPSREEMTKNQVSLTCLVKGFYPSDIAVEWESNGQPENNYKTTPPMLDSDGSFFLYSKLTVDKSRWQQGNVFSCSVMHEALHNHYTQKSLSLSPG
light: B2 light with T26S, K31N, Y33D, E93D, R95T, V99G
B5: GLP1R-240 (antibody, human IgG2, lambda)
heavy: QVQLVQSGAEVKKPGSSVKVSCKASGGTFNNYGISWVRQAPGQGLEWMGGIIPVFGTANYAQKFQGRVTITADESTSTAYMELSSLRSEDTAVYYCARDMYYDFFGLGTFTSDVSSYLEGQAAKEFIAWLVKGVSPEVVPADDAFDIWGQGTLVTVSSASASTKGPSVFPLAPCSRSTSESTAALGCLVKDYFPEPVTVSWNSGALTSGVHTFPAVLQSSGLYSLSSVVTVPSSNFGTQTYTCNVDHKPSNTKVDKTVERKCCVECPPCPAPPVAGPSVFLFPPKPKDTLMISRTPEVTCVVVDVSHEDPEVQFNWYVDGVEVHNAKTKPREEQFNSTFRVVSVLTVVHQDWLNGKEYKCKVSNKGLPAPIEKTISKTKGQPREPQVYTLPPSREEMTKNQVSLTCLVKGFYPSDIAVEWESNGQPENNYKTTPPMLDSDGSFFLYSKLTVDKSRWQQGNVFSCSVMHEALHNHYTQKSLSLSPG
light: QSVLTQPPSVSAAPGQKVTISCSGSSSSIGNNYVSWYQQLPGTAPKLLIYANNKRPSGIPDRFSGSKSGTSATLGITGLQTGDEADYYCATWSSSPRGWVFGGGTKLTVLGQPKAAPSVTLFPPSSEELQANKATLVCLISDFYPGAVTVAWKADSSPVKAGVETTTPSKQSNNKYAASSYLSLTPEQWKSHRSYSCQVTHEGSTVEKTVAPTECS
B6: GLP1R-243 (antibody, human IgG2, lambda, V domains shown)
VH: QVQLVQSGAEVKKPGSSVKVSCKASGGTFSTYGINWVRQAPGQGLEWMGGIIPIFGTANYAQKFQGRVTITADESTSTAYMELSSLRSEDTAVYYCARANQHFFGKGDNLAARDFINWLIQTKITDGSNPGYHYYGMDVWGQGTLVTVSS
VL: QSVLTQPPSVSAAPGQKVTISCSGSRSNIGKNYVSWYQQLPGTAPKLLIYENNERPSGIPDRFSGSKSGTSATLGITGLQTGDEADYYCSSYTTSNTQVFGGGTKLTVLG
B7: GLP1R-244 (antibody, human IgG2, lambda, V domains shown)
VH: QVQLVQSGAEVKKPGSSVKVSCKASGGTFSSYAISWVRQAPGQGLEWMGGIIPIFGTANYAQKFQGRVTITADESTSTAYMELSSLRSEDTAVYYCARANQHFAATGAGEGQAAKEFIAWLVKGRVEIGYHYYGMDVWGQGTLVTVSS
VL: QSVLTQPPSVSAAPGQKVTISCSGSSSNIGNNVVSWYQQLPGTAPKLLIYDNDKRRSGIPDRFSGSKSGTSATLGITGLQTGDEADYYCGSWDTSLSVWVFGGGTKLTVLG
B8: GLP1R-59-2 (antibody)
chain 1: QVQLVESGGGVVQPGRSLRLSCAASGFTFSNYGMSWVRQAPGKGLEWVAVISYDAGNKYYADSVKGRFTISRDNSKNTLYLQMNSLRAEDTAVYYCARDMYYDFETVVEGIQWYEALKAGKLGEVVPADDAFDIWGQGTLVTVSSASTKGPSVFPLAPCSRSTSESTAALGCLVKDYFPEPVTVSWNSGALTSGVHTFPAVLQSSGLYSLSSVVTVPSSNFGTQTYTCNVDHKPSNTKVDKTVERKCCVECPPCPAPPVAGPSVFLFPPKPKDTLMISRTPEVTCVVVDVSHEDPEVQFNWYVDGVEVHNAKTKPREEQFNSTFRVVSVLTVVHQDWLNGKEYKCKVSNKGLPAPIEKTISKTKGQPREPQVYTLPPSREEMTKNQVSLTCLVKGFYPSDIAVEWESNGQPENNYKTTPPMLDSDGSFFLYSKLTVDKSRWQQGNVFSCSVMHEALHNHYTQKSLSLSPGK
chain 2: HGEGTFTSDVSSYLEEQAAKEFIAWLVKGGGGGGGSGGGGSGGGGSQSALTQPASVSGSPGQSITISCTGTSNDIGTYNYVSWYQQHPGKAPKLMIYDVSGRPSGVSNRFSGSKSGNTASLTISGLQAEDEADYYCSSYTTSSTEVFGGGTKLTVLGQPKAAPSVTLFPPSSEELQANKATLVCLISDFYPGAVTVAWKADSSPVKAGVETTTPSKQSNNKYAASSYLSLTPEQWKSHRSYSCQVTHEGSTVEKTVAPTECS

Legend:
Experiment in all cases: cell-based or functional assay
[1] = target: T1, glucagon-like peptide-1 receptor (GLP1R) (Homo sapiens (Human), UniProt P43220 24-463)
[2] = target: T1, glucagon-like peptide-1 receptor (GLP1R); remark: listed apart in the source
[3] = target: T1, glucagon-like peptide-1 receptor (GLP1R); remark: listed apart in the source
[4] = target: T1, glucagon-like peptide-1 receptor (GLP1R); remark: listed apart in the source

T1 sequence (P43220 24-463): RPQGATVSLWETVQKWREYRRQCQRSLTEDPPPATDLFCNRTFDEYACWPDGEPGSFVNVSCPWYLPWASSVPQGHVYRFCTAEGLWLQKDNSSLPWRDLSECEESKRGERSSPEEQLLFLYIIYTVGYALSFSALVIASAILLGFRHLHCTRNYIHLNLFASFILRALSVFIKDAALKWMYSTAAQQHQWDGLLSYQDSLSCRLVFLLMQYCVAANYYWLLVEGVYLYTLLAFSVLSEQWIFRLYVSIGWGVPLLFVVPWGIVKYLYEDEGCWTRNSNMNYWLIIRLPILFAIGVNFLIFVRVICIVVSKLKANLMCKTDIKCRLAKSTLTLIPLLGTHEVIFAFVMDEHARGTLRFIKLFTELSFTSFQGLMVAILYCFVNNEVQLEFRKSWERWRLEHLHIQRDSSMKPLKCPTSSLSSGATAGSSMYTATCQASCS

| Binder | EC50 (nM) of GLP1 (7-36) in the cAMP assay after 100 nM IgG [1] [nM] | further results |
| --- | --- | --- |
| B1 | 0.0879 | – |
| B2 | 0.0799 | – |
| B3 | 0.103 | fold difference of the EC50 against no antibody [2]: 1.7 fold; EC50 (nM) of GLP1 (7-36)-induced signaling with GLP1R IgG (+100 nM) [3]: 0.103 nM |
| B4 | ~0.0653 | – |
| B5 | 0.0654 | – |
| B6 | 0.128 | – |
| B7 | 0.154 | – |
| B8 | – | EC50 (nM) of the IgG as agonist, functional assay on GLP-1R overexpressing cells [4]: 0.842 nM |
